Data as given in IntAct's records for PubMed 16799563.

B1: Mediator of RNA polymerase II transcription subunit 15 (Homo sapiens), Q96RN5 (parent)
chain: MDVSGQETDWRSTAFRQKLVSQIEDAMRKAGVAHSKSSKDMESHVFLKAKTRDEYLSLVARLIIHFRDIHNKKSQASVSDPMNALQSLTGGPAAGAAGIGMPPRGPGQSLGGMGSLGAMGQPMSLSGQPPPGTSGMAPHSMAVVSTATPQTQLQLQQVALQQQQQQQQFQQQQQAALQQQQQQQQQQQFQAQQSAMQQQFQAVVQQQQQLQQQQQQQQHLIKLHHQNQQQIQQQQQQLQRIAQLQLQQQQQQQQQQQQQQQQALQAQPPIQQPPMQQPQPPPSQALPQQLQQMHHTQHHQPPPQPQQPPVAQNQPSQLPPQSQTQPLVSQAQALPGQMLYTQPPLKFVRAPMVVQQPPVQPQVQQQQTAVQTAQAAQMVAPGVQMITEALAQGGMHIRARFPPTTAVSAIPSSSIPLGRQPMAQVSQSSLPMLSSPSPGQQVQTPQSMPPPPQPSPQPGQPSSQPNSNVSSGPAPSPSSFLPSPSPQPSQSPVTARTPQNFSVPSPGPLNTPVNPSSVMSPAGSSQAEEQQYLDKLKQLSKYIEPLRRMINKIDKNEDRKKDLSKMKSLLDILTDPSKRCPLKTLQKCEIALEKLKNDMAVPTPPPPPVPPTKQQYLCQPLLDAVLANIRSPVFNHSLYRTFVPAMTAIHGPPITAPVVCTRKRRLEDDERQSIPSVLQGEVARLDPKFLVNLDPSHCSNNGTVHLICKLDDKDLPSVPPLELSVPADYPAQSPLWIDRQWQYDANPFLQSVHRCMTSRLLQLPDKHSVTALLNTWAQSVHQACLSAA
partner: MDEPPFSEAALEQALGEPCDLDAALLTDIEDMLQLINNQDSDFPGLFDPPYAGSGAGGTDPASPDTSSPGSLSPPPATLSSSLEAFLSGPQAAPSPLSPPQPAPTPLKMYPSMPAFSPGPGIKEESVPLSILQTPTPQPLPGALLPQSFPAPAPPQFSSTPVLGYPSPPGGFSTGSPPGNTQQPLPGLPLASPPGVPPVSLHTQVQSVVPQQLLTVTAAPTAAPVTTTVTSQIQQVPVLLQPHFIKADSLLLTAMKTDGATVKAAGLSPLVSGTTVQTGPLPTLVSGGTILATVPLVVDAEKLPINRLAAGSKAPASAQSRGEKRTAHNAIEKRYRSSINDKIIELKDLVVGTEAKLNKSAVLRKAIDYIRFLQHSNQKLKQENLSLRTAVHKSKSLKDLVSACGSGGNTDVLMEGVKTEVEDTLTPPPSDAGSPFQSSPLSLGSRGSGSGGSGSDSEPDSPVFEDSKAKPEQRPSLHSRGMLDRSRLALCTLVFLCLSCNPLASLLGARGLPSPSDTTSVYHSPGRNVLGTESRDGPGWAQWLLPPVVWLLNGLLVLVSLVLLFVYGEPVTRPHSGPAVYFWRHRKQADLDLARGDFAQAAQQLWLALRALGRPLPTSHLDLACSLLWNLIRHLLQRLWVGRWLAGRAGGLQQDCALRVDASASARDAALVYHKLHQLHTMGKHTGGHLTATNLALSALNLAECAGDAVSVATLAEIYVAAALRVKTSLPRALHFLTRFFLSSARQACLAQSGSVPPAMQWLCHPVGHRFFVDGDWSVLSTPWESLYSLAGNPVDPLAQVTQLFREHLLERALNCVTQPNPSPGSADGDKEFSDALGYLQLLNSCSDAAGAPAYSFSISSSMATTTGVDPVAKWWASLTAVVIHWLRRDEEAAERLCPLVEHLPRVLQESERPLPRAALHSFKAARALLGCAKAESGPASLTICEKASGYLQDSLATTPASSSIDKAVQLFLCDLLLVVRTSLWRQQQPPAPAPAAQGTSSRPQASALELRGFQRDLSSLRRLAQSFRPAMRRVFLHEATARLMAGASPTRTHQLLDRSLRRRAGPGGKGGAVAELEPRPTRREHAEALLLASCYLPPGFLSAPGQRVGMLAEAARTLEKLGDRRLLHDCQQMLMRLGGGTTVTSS

Variants of: B1
Conditions: with SREBF1, P36956-1

Variant	effect of a mutation on the interaction
A60D	disrupting interaction strength
E42A	disrupting interaction strength
L58D	disrupting interaction strength
